According to paper PMC9451086:

Target: Importin-α1 (UniProt P52292)
Experiment: proximity ligation assay
Settings: PLC3 cells electroporated with HEV-p6 RNA, 18 h.p.e; 12 fields of cells, mean ± S.D.; parent: est. 5.3; read off a plot

## HEV ORF2 capsid protein, wild type (genotype 3 Kernow C-1 p6 strain) R28A; R29A; R30A; R32A; R33A
  response: 1.1 spot/cell

## HEV ORF2 capsid protein, wild type (genotype 3 Kernow C-1 p6 strain) P25R; S26R; G27R
  response: 4.8 spot/cell
